Consider three molecules from patent US20250289897A1 (Eli Lilly, published 2025).

Test [1] has as its target T1, cynomolgus monkey LEPR, full length, on HEK293-STAT3Luc-cmLepR2 cells (Macaca fascicularis).
T1 construct: whole, on cells; also called cyno-LEPR; Macaca fascicularis LEPR
Put plainly: flow cytometry on live HEK293-STAT3Luc-cmLepR2 cells, AF647 anti-human IgG; average of 4 runs, SD 0.7. In general terms: Flow cytometry measures light scatter and fluorescence of single cells or particles in a stream.

Test [2] has as its target T2, Human C1q (MS Biomedical) (human, UniProt P02745 23-245; P02746 28-253; P02747 29-245).
T2 construct: the three subunits are from general knowledge; also called complement component C1q; Clq
Kind of test: C1q ELISA, plate coated with the antibody at 0.19-10 ug/mL, human C1q added at 10 ug/mL, sheep anti-human C1q-HRP detection, OD450.

The target in test [3] is T3, neonatal Fc receptor (FcRn) on FcRn Affinity Column Gen2 (Roche, Cat #09430857001) (UniProt P55899 24-297; P61769 21-119, limits assumed). Put plainly: FcRn-HPLC (Roche FcRn Affinity Column Gen2), peak width at 50% peak height.
The target in test [4] is T3, neonatal Fc receptor (FcRn) on FcRn …. Put plainly: FcRn-HPLC (Roche FcRn Affinity Column Gen2), pH gradient 5.5 to 8.8 over 90 minutes.
The target in test [5] is T4, canine LEPR-ECD-His (canine).
T4 chain: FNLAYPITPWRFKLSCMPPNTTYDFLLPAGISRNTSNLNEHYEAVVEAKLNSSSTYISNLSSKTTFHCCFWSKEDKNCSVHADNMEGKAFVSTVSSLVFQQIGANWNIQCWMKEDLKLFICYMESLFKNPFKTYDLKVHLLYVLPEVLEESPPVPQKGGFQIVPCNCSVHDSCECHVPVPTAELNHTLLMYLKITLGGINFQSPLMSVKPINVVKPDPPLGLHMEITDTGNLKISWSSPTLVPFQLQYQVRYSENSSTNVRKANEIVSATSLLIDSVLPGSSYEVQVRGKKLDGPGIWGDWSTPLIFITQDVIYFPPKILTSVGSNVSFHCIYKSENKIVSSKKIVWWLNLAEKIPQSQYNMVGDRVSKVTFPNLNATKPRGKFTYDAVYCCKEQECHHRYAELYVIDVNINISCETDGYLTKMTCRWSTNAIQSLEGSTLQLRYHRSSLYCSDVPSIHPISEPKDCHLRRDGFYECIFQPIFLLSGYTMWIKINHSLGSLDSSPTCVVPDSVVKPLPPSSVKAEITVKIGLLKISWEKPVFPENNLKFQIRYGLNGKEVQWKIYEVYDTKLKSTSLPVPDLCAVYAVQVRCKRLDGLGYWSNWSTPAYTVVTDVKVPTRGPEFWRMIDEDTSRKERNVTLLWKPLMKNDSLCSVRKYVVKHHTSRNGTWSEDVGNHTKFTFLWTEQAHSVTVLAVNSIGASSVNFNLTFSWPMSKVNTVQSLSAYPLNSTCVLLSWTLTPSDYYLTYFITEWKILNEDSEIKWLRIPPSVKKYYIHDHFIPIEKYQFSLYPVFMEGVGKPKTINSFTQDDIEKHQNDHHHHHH
Put plainly: SPR (Biacore T200), antibody captured on Protein A/G chip, His-tagged LEPR-ECD as analyte; summary sentence of Table 3. A general note: Surface plasmon resonance follows binding to a sensor surface in real time, without labels.

Test [6] addresses T5, CYNO LEPR-ECD-His (cynomolgus monkey, UniProt Q9MYL0 22-837 (rhesus entry)).
T5 construct: also called cynomolgus monkey LEPR
T5 sequence: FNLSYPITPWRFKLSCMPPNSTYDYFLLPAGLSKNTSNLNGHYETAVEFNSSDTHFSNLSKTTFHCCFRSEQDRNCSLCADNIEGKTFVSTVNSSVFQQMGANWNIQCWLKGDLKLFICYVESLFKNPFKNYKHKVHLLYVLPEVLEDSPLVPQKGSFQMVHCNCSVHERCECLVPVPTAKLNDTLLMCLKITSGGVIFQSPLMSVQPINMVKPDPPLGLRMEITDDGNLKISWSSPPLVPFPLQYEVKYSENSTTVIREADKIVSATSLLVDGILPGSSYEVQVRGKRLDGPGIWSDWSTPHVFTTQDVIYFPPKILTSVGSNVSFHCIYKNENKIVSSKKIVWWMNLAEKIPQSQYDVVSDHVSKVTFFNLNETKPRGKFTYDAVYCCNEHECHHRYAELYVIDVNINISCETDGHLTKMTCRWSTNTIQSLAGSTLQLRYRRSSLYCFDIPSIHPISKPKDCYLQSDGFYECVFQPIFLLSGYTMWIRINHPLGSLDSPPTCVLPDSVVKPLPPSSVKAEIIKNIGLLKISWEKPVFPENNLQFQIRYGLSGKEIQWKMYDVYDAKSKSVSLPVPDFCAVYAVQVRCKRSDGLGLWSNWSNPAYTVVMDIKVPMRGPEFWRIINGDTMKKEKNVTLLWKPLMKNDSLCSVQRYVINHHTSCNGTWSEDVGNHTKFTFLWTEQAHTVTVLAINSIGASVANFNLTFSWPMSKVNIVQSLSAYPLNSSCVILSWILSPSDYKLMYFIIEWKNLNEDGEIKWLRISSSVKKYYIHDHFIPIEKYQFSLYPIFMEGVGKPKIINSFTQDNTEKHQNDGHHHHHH
Kind of test: SPR (Biacore T200), antibody captured on Protein A/G chip, His-tagged LEPR-ECD as analyte, 1:1 fit; mean n=4, SD 2.6E-8.

For test [7], the target named is T5, CYNO LEPR-ECD-His. Kind of test: SPR (Biacore T200), antibody captured on Protein A/G chip, His-tagged LEPR-ECD as analyte, 1:1 fit; mean n=4, SD 1.7E-8.
Test [8] deals with T4, canine LEPR-ECD-His. Kind of test: SPR (Biacore T200), antibody captured on Protein A/G chip, His-tagged LEPR-ECD as analyte, 1:1 fit; mean n=2, SD 1.9E-8.

B1: Antibody A (antibody, human IgG1, kappa, L234A L235A)
heavy: EVQLLESGGGLVQPGGSLRLSCAASGFTFSSFAMSWVRQAPGKGLEWVSAISGSGGSTYSADSVRGRFTISRDNSKNTLYLQMNSLRAEDTAVYYCAKDQGDWDFLFDYWGQGTLVTVSSASTKGPSVFPLAPSSKSTSGGTAALGCLVKDYFPEPVTVSWNSGALTSGVHTFPAVLQSSGLYSLSSVVTVPSSSLGTQTYICNVNHKPSNTKVDKRVEPKSCDKTHTCPPCPAPEAAGGPSVFLFPPKPKDTLYITREPEVTCVVVSVSHEDPEVKFNWYVDGVEVHNAKTKPREEQYNSTYRVVSVLTVLHQDWLNGKEYKCKVSNKALPAPIEKTISKAKGQPREPQVYTLPPSREEMTKNQVSLTCLVKGFYPSDIAVEWESNGQPENNYKTTPPVLDSDGSFFLYSKLTVDKSRWQQGNVFSCSVMHEALHNHYTQKSLSLSPGK
light: DIQMTQSPSFLSASVGDRVTITCRASQGISSSLAWYQQKPGKAPKLLIYTASTLQSGVPSRFSGSGSGTEFTLTISSLQPEDFATYYCQQLIYYPFTFGQGTKVEIKRTVAAPSVFIFPPSDEQLKSGTASVVCLLNNFYPREAKVQWKVDNALQSGNSQESVTEQDSKDSTYSLSSTLTLSKADYEKHKVYACEVTHQGLSSPVTKSFNRGEC
notes: IgG1 mAb
In test [1], B1 came in with an EC50 of 0.00074 µM. In addition, in test [2], the binding result is “no binding (tested: 10 ug/ml)”. For the same molecule, the “Peak Width” value in test [3] is 2.7 min. Moreover, the “Retention Time” value in test [4] was determined as 80.1 min.

B2: Antibody C (antibody, human IgG1, kappa, L234A L235A, V domains shown)
VH: EVQLLESGGGLVQPGGSLRLSCAASGFTFSSFAMSWVRQAPGKGLEWVSAISGSGGSTYSADSVRGRFTISRDNSKNTLYLQMNSLRAEDTAVYYCAKDQGDWDFLFDYWGQGTLVTVSS
VL: DIQMTQSPSFLSASVGDRVTITCRASQGISSSLAWYQQKPGKAPKLLIYTASTLQSGVPSRFSGSGSGTEFTLTISSLQPEDFATYYCQQLNYYPFSFGQGTKVEIKR
With B2, the binding result with canine LEPR-ECD-His [5] is on record as “binds”. Further, binding with CYNO LEPR-ECD-His [6] was put at a Kd of 0.047 µM.

B3: Antibody B (antibody, human IgG1, kappa, L234A L235A, V domains shown)
VH: EVQLLESGGGLVQPGGSLRLSCAASGFTFSSFAMSWVRQAPGKGLEWVSAISGSGGSTYSADSVRGRFTISRDNSKNTLYLQMNSLRAEDTAVYYCAKDQGDWDFLFDYWGQGTLVTVSS
VL: DIQMTQSPSFLSASVGDRVTITCRVSQGISSSLAWYQQKPGKAPKLLIYTASTLQSGVPSRFSGSGSGTEFTLTISSLQPEDFATYYCQQLNYYPFTFGQGTKVEIKR
In the case of B3, the Kd was 0.032 µM with CYNO LEPR-ECD-His [7] and 0.33 µM with canine LEPR-ECD-His [8].

For orientation: EC50 means the midpoint of the concentration-response curve. Broadly, the Kd is the equilibrium constant for the complex coming apart.
